Assays:
[1] = target: class I HLA molecules (MHC-I) at the cell surface (human); experiment: cell-based or functional assay
[2] = target: T1, Ad5Luc3 (adenovirus serotype 5 (Ad5), UniProt P11818 1-581); experiment: cell-based or functional assay
T1 sequence: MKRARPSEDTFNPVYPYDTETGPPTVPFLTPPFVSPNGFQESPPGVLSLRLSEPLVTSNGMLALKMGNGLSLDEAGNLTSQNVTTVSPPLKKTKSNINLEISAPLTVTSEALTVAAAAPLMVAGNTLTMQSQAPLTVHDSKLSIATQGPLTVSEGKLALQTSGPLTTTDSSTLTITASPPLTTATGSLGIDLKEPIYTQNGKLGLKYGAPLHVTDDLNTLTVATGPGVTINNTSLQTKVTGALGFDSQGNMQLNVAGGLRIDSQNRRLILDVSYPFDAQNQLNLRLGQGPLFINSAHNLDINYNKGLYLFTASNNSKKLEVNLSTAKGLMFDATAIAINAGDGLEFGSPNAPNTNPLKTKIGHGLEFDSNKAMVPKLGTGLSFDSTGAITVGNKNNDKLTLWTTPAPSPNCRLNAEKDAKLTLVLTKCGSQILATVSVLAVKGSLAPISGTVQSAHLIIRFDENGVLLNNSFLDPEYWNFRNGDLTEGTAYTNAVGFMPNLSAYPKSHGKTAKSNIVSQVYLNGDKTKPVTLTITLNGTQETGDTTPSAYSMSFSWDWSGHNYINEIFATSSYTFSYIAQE

Ad5Luc3 (from UniProt P11818 1-581) showed a luciferase activity 18 h post-infection, attachment at 0 C; Daudi HLA- cells against Daudi-HLA+ cells (orders of magnitude) [1] of 3 to 4.

In the case of RAIVGFRVQWLRRYFVNGSR [synthetic peptide MH20], the “fold decrease in luciferase activity (RLU) in HeLa cells; Ad5Luc3 preincubated with peptide, attachment at 0 C” value [2] is reported as 100 fold.
